Data on one substance can be found in PMC8887629.

The target in this assay is full-length human LRRK2 (leucine-rich repeat kinase 2) (human) (UniProt Q5S007). Nature of the assay: cryo-EM structure.

A word on the stoichiometry N: it is a count of units in the complex or per binding partner. “full-length human LRRK2 (leucine-rich repeat kinase 2) (from UniProt Q5S007 1-2527) (enzyme)” showed a stoichiometry N of 2.
